This note sets out measurements from patent US20230250438.

In the series the target is Transferrin receptor (TfR) (Mus musculus) (UniProt Q62351). The series can be described thus: pulldown. The following applies: B = Bn-dU, unit not given.
Chain of Transferrin receptor (TfR) (Mus musculus) (Q62351 89-763): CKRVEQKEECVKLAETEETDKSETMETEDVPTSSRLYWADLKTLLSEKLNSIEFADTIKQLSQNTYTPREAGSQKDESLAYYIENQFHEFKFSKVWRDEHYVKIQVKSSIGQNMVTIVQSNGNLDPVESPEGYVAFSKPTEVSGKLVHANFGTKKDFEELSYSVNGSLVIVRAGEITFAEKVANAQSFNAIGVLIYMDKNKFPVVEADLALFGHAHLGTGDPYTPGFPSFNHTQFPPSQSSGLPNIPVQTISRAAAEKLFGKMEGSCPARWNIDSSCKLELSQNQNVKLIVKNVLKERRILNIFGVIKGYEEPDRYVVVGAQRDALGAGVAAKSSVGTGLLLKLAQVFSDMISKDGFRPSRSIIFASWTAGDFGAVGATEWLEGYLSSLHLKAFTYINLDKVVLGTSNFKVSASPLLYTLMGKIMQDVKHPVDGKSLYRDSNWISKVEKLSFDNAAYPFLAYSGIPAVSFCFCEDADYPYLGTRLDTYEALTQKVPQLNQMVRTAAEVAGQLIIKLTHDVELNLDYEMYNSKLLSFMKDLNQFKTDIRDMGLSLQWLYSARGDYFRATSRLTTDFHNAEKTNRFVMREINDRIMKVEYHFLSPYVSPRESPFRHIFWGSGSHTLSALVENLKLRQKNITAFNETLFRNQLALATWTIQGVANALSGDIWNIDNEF

For the sequence “GAATUCAAAAGTGTCGGTGATTTGCCTCGTCGCTCCAATGT [UMe 2]”, the Kd (2'-OMe-U at 5 [2'-OMe-U: 5, Bn-dU: 4,12,14,18,21,22,23,27,30,34,39,41], Table 10 ratio 0.10) is 56.4.
For the setting “2'-OMe-U at 34 [Bn-dU: 4,5,12,14,18,21,22,23,27,30,39,41, 2'-OMe-U: 34], SB18, 5 mM MgCl2, 37 C”, “GAATTCAAAAGTGTCGGTGATTTGCCTCGTCGCUCCAATGT [UMe 11]” displayed a Kd of 17.8.
Take “GAATTCAAAAGTGTCGGTGATTTGCCTCGTCGCTCCAATGT [GMe 2]”: the Kd (2'-OMe at G11 [Bn-dU: 4,5,12,14,18,21,22,23,27,30,34,39,41, 2'-OMe-G: 11], SB18, 5 mM MgCl2, 37 C) is 9.67.
For “GAAUTCAAAAGTGTCGGTGATTTGCCTCGTCGCTCCAATGT [UMe 1]”, the Kd (2'-OMe-U at 4 [2'-OMe-U: 4, Bn-dU: 5,12,14,18,21,22,23,27,30,34,39,41], Table 10 ratio 0.13) worked out at 42.6.
“GAATTCAAAAGTGTCGGTGATTTGCCTCGTCGCTCCAATGT [CMe 3]”: the Kd (2'-OMe at C25 [Bn-dU: 4,5,12,14,18,21,22,23,27,30,34,39,41, 2'-OMe: 25], SB18, 5 mM MgCl2, 37 C) is 11.1.
As for “GAATTCAAAAGTGTCGGTGATTTGCCTCGTCGCTCCAATGT [CMe 9]”, the Kd (2'-OMe at C36 [Bn-dU at 4,5,12,14,18,21,22,23,27,30,34,39,41, 2'-OMe at C36], SB18, 5 mM MgCl2, 37 C) amounted to 7.66.
Turning to “GAATTCAAAAGTGUCGGTGATTTGCCTCGTCGCTCCAATGT [UMe 4]”, for the setting “2'-OMe-U at 14 [Bn-dU: 4,5,12,18,21,22,23,27,30,34,39,41, 2'-OMe-U: 14], Table 10 ratio 0.17”, the Kd was 32.4.
Consider “GAATTCAAAAGTGTCGGTGATTTGCCTCGTCGCTCCAATGT [CMe 2]”, for which, for the setting “2'-OMe at C15 [Bn-dU: 4,5,12,14,18,21,22,23,27,30,34,39,41, 2'-OMe: 15], SB18, 5 mM MgCl2, 37 C”, the Kd was determined as 11.4.
The sequence “GAATTCAAAAGTGTCGGTGATTTGCCTCGTCGCTCCAATGU [UMe 13]” registered a Kd (2'-OMe-U at 41 [Bn-dU: 4,5,12,14,18,21,22,23,27,30,34,39, 2'-OMe-U: 41], SB18, 5 mM MgCl2, 37 C) of 22.8.
For the sequence “GAATTCAAAAGTGTCGGTGATTTGCCTCGTCGCTCCAATGT [CMe 8]”, the Kd (2'-OMe at C35 [Bn-dU at 4,5,12,14,18,21,22,23,27,30,34,39,41, 2'-OMe at C35], SB18, 5 mM MgCl2, 37 C) is 8.46.
As for “GAATTCAAAAGTGTCGGTGATTTGCCTCGTCGCTCCAAUGT [UMe 12]”, the Kd (2'-OMe-U at 39 [Bn-dU: 4,5,12,14,18,21,22,23,27,30,34,41, 2'-OMe-U: 39], SB18, 5 mM MgCl2, 37 C) amounted to 28.
Sequence “GAATTCAAAAGTGTCGGTGATTTGCCUCGTCGCTCCAATGT [UMe 9]” displayed a Kd (2'-OMe-U at 27 [Bn-dU: 4,5,12,14,18,21,22,23,30,34,39,41, 2'-OMe-U: 27], SB18, 5 mM MgCl2, 37 C) of 18.3.
On to “GAATTCAAAAGTGTCGGTGATUTGCCTCGTCGCTCCAATGT [UMe 7]”, for which, for the setting “2'-OMe-U at 22 [Bn-dU: 4,5,12,14,18,21,23,27,30,34,39,41, 2'-OMe-U: 22], Table 11 ratio 2.51 (improved)”, the Kd was found to be 1.84.
For the setting “2'-OMe-U at 30 [Bn-dU: 4,5,12,14,18,21,22,23,27,34,39,41, 2'-OMe-U: 30], SB18, 5 mM MgCl2, 37 C”, “GAATTCAAAAGTGTCGGTGATTTGCCTCGUCGCTCCAATGT [UMe 10]” yielded a Kd of 25.2.
Regarding “GAATTCAAAAGTGTCGGTGATTTGCCTCGTCGCTCCAATGT [CMe 7]”, the Kd (2'-OMe at C33 [Bn-dU at 4,5,12,14,18,21,22,23,27,30,34,39,41, 2'-OMe at C33], Table 11 ratio 3.36 (improved)) amounted to 0.363.
For the setting “2'-OMe at G29 [Bn-dU: 4,5,12,14,18,21,22,23,27,30,34,39,41, 2'-OMe: 29], SB18, 5 mM MgCl2, 37 C”, “GAATTCAAAAGTGTCGGTGATTTGCCTCGTCGCTCCAATGT [GMe 8]” showed a Kd of 5.39.
For the sequence “GAATTCAAAAGTGTCGGTGATTTGCCTCGTCGCTCCAATGT [GMe 4]”, where the note is “2'-OMe at G16 [Bn-dU: 4,5,12,14,18,21,22,23,27,30,34,39,41, 2'-OMe: 16], SB18, 5 mM MgCl2, 37 C”, the Kd worked out at 6.33.
Take “GAATTCAAAAGTGTCGGTGATTTGCCTCGTCGCTCCAATGT [CMe 4]”: the Kd (2'-OMe at C26 [Bn-dU: 4,5,12,14,18,21,22,23,27,30,34,39,41, 2'-OMe: 26], SB18, 5 mM MgCl2, 37 C) was found to be 6.94.
